# Patent US7625733B2, “Isolation of quiescin-sulfhydryl oxidase from milk” (University of Delaware, priority 2007, dated 2009)
# Read-outs that look alike come from different tables or passages of the source.
# B1: Milk QSOX1: Flavin-dependent quiescin Q6 sulfhydryl oxidase 1 isolated and purified from bovine milk, amino acid sequence SEQ ID NO:1 (protein, listed as Bos taurus)
# chain: SALYSSSDPLTLLRADTVRSTVLGSSSAWAVEFFASWCGHCIAFAPTWKALANDVKDWRPALNLAALDCAEETNSAVCRDFNIPGFPTVRFFKAFSKTGSGTTLSVAGADVQTLRERLIDALESHSDTWPPACPPLEPARLEEITGFFARNNEEYLALIFEKEGSYLGREVTLDLSQHQGIAVRRVLNTERDVVNRFGVTNFPSCYLLSRNGSFSRVPALTESRSFYTTYLRKFSGSTRGAVQTTAAPATTSAVAPTVWKVADRSKIYMADLESALHYILRIEVGKFSVLEGQRLVALKKFMAVLAKYFRGRPLVQNFLHSMNDWLKKQQRKKIPYGFFKNALDSRKEGTVIAEKVNWVGCQGSEPHFRGFPCSLWILFHFLTVQAAQEGVDHPQERAKAQEVLQAIRGYVRFFFGCRECAGHFEQMASGSMHRVGSLNSAVLWFWSSHNKVNARLAGAPSEDPQFPKVQWPPRELCSACHNELRGTPVWDLDNILKFLKTHFSPSNIVLDFPSAGPGPWR
# B2: Egg QSOX1: Avian QSOX1 isolated from egg white; data from Hoober et al. 1999 (protein, UniProt Q8JGM4 43-743, looked up)
# Sulfhydryl oxidase 1: RSLYSPSDPLELLGADTAERRLLGSPSAWAVEFFASWCGHCIHFAPTWRALAEDVREWRPAVMIAALDCADEANQQVCADFGITGFPTLKFFRAFSKKAEDGIRIAHPTATVADLRRAIITNLEQSGDAWPPACPPLEPASAEEVRSFFHRNTERYLALIFEQSNSFVGREVALDLLQYENVAVRRVLSSEEELVEKFGVTTFPSAYLLLRNGSFSRLPVHAEARSFYTYYLQTLSGVTRGSYRLNVTGSAINETRALQPAQADRSKVYVADLESTVHYTLRVEAGRPAVLAGAQLAALKCYVATLAKYFPGRPSVQTFLQSLDSWLRNWTEPELPRSALKEAVKNKEDASPAAVLPTNVTWVGCRGSEPHFRGYPCGLWTIFHLLTVQAAQGGPDEELPLEVLNTMRCYVKHFFGCQECAQHFEAMAAKSMDQVKSRREAVLWLWSHHNEVNARLAGGDTEDPQFPKLQWPPPDMCPQCHREERGVHTWDEAAVLSFLKEHFSLGNLYLDHAIPIPMAGEEAAASARLSTAGLREKEEEERKEEEEEGEKETEKPHREGETGRPGSSELRRPSIVRRNPRLRALGEDIVDLDSFSEQHFKSKALRAAGRHRRLSKRDTVALHHDAGWERLQVPESREEEEEGGVLRRSPWLRVLGLGFSRLDVSLCIALYFLSSMCLLGMYTFFRLRTRARKGRPGFPVA
# Experiments:
# [1] = Oxygen electrode assay, oxidation of dithiothreitol by QSOX1; assay type: biochemical; conditions: substrate DTT, 25° C., 50 mM phosphate buffer, pH 7.5, 1 mM EDTA
# Experimental: (§1) Oxygen electrode assays were performed in duplicate at 25° C. as described in K. L. Hoober, et al., J. Biol. Chem. 271: 30510-30516, 1996. Assays were initiated by the addition of 5 mM DTT or reduced glutathione (GSH). All thiol substrates were standardized with DTNB before use. Reduced RNase was prepared, characterized and stored as described in K. L. Hoober, et al., J. Biol. Chem. 271: 30510-30516, 1996. Assays of the oxidation of reduced RNase were performed as described by K. L. Hoober et al., J. Biol. Chem. 274: 22147-22150.
# [2] = Oxygen electrode assay, oxidation of reduced glutathione by QSOX1; assay type: biochemical; conditions: substrate GSH, 25° C., 50 mM phosphate buffer, pH 7.5, 1 mM EDTA
# Experimental: as §1
# reduced RNase (rRNase) [3] = assay: Oxidation of reduced RNase by QSOX1; assay type: biochemical
# Experimental: as §1
# [4] = Stimulation of sulfhydryl oxidase activity by added ferrous iron; assay type: biochemical; conditions: purified QSOX1 from milk
# [5] = Inhibition of sulfhydryl oxidase activity by EDTA; assay type: biochemical; conditions: purified QSOX1 from milk
# [6] = substrate DTT, data from Hoober et al. 1999, cited from earlier work
# [7] = substrate GSH, data from Hoober et al. 1999, cited from earlier work
# reduced RNase (rRNase) [8] = conditions: substrate rRNase, data from Hoober et al. 1999, cited from earlier work
Molecule,Km [1],kcat ([1]; thiols oxidized per minute),Km [2],kcat ([2]; thiols oxidized per minute),catalytic efficiency relative to egg white QSOX1 (reduced RNase (rRNase) [3]; oxidation of reduced pancreatic RNase),"Km (reduced RNase (rRNase) [3]; substrate rRNase, 25° C., 50 mM phosphate buffer, pH 7.5, 1 mM EDTA)","kcat (reduced RNase (rRNase) [3]; substrate rRNase, 25° C., 50 mM phosphate buffer, pH 7.5, 1 mM EDTA, thiols oxidized per minute)",Is activity stimulated by added Ferrous iron? [4],Is EDTA inhibitory? [5],Km [6],kcat ([6]; thiols oxidized per minute),Km [7],kcat ([7]; thiols oxidized per minute),Km (reduced RNase (rRNase) [8]),kcat (reduced RNase (rRNase) [8]; thiols oxidized per minute)
B1,86 µM,1880 min⁻¹,4.9 mM,1760 min⁻¹,two-fold higher,60 µM,1340 min⁻¹,No,No,–,–,–,–,–,–
B2,–,–,–,–,–,–,–,–,–,150 µM,2060 min⁻¹,20 mM,2780 min⁻¹,115 µM,1220 min⁻¹
